Molecular target: recombinant wild-type human alpha-synuclein (human) (UniProt P37840)
Test: cell-based or functional assay

Chain of Polo like kinase 2 (PLK2) (Q9NYY3 whole entry): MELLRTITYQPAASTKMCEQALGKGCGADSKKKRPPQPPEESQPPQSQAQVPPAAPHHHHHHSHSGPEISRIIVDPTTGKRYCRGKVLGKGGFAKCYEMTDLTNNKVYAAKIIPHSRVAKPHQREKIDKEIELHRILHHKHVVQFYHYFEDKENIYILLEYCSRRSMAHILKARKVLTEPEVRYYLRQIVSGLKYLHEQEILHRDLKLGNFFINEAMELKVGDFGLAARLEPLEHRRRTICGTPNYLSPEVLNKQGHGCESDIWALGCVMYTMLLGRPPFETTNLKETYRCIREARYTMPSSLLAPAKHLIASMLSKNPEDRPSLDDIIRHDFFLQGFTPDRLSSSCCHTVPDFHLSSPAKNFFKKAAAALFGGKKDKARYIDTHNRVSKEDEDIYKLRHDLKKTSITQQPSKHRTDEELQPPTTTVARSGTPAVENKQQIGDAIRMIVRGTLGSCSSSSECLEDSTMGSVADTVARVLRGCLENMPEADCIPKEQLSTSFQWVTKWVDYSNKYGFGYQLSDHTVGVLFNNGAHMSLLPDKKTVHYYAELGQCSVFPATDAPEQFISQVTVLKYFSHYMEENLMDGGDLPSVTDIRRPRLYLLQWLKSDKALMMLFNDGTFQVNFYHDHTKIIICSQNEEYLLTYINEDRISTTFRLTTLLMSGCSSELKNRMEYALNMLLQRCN
Chain of G protein-coupled receptor kinase 6 (GRK6) (P43250 whole entry): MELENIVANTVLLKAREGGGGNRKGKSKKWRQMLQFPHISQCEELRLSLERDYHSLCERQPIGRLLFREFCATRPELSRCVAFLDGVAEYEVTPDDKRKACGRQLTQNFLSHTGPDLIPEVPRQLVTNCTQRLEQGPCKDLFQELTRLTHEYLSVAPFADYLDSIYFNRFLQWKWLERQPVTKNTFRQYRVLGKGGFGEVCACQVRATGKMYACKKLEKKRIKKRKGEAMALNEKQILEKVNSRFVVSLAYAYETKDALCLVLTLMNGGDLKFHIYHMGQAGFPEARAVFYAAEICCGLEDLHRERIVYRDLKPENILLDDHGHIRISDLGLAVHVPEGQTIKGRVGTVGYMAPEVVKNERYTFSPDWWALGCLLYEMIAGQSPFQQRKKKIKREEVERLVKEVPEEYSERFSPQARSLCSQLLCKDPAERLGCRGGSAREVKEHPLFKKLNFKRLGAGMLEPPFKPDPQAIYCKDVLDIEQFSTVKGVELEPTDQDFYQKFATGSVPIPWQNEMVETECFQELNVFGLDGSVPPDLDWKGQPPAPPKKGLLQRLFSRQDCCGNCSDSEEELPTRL
Chain of Aortic preferentially expressed gene 1 (APEG1) (Q15772 whole entry): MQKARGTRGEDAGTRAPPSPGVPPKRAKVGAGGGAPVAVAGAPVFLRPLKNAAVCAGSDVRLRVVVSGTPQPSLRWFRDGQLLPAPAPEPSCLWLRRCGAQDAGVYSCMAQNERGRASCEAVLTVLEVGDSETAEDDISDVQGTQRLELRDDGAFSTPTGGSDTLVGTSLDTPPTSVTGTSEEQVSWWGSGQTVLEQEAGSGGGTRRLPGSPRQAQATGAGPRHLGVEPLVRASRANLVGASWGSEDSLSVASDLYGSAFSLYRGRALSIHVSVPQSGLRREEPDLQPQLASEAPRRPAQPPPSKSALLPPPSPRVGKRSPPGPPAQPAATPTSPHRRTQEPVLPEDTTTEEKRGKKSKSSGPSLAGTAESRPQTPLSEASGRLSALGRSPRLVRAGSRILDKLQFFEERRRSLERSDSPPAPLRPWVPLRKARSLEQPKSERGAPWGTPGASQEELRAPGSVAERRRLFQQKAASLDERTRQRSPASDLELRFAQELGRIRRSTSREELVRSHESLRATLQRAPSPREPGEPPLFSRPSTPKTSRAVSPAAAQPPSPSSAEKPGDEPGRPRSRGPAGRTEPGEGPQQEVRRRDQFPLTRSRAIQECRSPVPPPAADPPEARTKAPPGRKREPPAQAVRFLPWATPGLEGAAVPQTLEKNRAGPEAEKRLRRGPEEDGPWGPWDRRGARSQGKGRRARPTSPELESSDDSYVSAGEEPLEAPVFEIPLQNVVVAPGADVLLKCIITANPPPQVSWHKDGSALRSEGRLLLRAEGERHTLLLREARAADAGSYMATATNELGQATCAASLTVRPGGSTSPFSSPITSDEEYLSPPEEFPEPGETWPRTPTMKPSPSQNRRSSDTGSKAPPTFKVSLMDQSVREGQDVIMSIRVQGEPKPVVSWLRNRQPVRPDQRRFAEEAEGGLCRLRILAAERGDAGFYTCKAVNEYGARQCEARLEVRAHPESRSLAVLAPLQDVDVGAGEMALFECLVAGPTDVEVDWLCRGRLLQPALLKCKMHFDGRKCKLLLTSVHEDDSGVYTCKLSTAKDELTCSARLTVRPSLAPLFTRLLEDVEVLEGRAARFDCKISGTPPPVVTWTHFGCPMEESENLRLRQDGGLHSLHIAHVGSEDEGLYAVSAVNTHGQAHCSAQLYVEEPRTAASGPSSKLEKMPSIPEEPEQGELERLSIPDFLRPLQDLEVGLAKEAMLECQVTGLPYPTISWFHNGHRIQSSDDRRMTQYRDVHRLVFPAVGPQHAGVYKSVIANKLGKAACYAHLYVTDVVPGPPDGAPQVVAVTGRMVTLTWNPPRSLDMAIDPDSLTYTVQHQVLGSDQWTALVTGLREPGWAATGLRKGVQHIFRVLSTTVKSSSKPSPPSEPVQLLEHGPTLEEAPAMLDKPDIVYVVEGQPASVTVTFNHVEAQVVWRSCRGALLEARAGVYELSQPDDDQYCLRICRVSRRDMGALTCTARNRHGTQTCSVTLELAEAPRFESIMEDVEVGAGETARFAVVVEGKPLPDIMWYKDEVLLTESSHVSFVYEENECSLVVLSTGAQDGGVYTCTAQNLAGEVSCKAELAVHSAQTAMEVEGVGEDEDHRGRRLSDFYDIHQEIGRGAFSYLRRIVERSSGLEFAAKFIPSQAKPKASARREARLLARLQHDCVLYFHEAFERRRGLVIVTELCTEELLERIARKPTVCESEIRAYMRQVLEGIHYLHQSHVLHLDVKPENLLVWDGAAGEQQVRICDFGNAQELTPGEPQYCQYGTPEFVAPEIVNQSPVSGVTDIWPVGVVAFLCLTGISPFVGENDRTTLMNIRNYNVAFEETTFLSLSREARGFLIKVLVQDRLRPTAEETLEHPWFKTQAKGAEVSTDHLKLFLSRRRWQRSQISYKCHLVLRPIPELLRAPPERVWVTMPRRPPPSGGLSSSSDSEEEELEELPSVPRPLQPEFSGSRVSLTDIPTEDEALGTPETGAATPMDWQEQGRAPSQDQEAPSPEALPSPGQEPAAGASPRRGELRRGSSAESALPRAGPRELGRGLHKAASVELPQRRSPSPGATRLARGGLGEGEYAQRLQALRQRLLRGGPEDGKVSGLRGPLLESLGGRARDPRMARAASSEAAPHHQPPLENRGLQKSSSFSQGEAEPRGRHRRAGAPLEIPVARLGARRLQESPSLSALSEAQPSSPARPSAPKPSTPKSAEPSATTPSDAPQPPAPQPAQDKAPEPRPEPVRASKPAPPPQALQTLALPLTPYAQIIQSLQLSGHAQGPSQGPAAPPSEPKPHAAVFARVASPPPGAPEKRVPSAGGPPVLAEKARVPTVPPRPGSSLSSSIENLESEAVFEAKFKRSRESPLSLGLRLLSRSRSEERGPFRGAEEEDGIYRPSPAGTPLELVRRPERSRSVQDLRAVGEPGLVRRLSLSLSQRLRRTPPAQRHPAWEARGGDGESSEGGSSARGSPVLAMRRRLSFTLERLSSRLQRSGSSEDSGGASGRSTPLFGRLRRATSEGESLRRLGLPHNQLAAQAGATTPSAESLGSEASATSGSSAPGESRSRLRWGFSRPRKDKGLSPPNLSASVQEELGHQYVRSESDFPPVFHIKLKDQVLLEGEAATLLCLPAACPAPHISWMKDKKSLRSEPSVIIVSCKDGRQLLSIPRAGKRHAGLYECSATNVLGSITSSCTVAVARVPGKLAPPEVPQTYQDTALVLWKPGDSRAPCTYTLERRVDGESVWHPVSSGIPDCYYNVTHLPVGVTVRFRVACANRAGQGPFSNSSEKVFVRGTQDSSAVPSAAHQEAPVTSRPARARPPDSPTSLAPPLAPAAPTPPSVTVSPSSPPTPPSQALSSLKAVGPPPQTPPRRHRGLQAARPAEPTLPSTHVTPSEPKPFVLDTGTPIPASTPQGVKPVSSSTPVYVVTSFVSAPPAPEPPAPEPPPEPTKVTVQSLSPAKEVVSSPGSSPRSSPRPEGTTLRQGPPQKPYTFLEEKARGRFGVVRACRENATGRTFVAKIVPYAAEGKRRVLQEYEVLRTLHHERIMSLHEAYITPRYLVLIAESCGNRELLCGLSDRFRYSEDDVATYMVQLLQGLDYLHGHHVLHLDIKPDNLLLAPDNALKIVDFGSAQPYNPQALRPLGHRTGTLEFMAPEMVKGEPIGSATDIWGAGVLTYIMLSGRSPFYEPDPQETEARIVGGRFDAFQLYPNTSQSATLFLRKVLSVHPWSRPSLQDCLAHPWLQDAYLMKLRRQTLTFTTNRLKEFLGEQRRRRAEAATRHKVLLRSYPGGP
Chain of CDC7 cell division cycle 7-like 1 (CDC7L1) (O00311 whole entry): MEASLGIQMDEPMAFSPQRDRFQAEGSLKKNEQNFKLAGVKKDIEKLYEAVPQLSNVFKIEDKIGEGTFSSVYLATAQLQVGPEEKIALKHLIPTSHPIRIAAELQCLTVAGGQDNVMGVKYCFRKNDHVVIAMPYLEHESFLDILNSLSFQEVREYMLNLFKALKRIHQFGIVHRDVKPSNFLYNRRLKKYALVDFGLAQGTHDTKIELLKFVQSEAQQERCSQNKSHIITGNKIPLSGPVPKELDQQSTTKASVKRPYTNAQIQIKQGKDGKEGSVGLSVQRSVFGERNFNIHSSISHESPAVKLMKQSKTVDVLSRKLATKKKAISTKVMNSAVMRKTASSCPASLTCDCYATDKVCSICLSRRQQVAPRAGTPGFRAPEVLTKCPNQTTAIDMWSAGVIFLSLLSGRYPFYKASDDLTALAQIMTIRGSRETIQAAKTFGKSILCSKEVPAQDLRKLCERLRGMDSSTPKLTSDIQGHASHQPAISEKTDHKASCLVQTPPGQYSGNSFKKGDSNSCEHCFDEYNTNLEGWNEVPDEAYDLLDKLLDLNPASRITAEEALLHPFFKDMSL

## CDC7 cell division cycle 7-like 1 (CDC7L1) (from UniProt O00311 1-574) (enzyme)
  percentage of phospho-synuclein, ELISA, PEAK-Syn cells transfected with kinase cDNA: 8.9%

## Aortic preferentially expressed gene 1 (APEG1) (from UniProt Q15772 1-3267) (enzyme)
  percentage of phospho-synuclein, ELISA, PEAK-Syn cells transfected with kinase cDNA: 8.9%

## G protein-coupled receptor kinase 6 (GRK6) (from UniProt P43250 1-576) (enzyme)
  fold increase of phospho-synuclein, HEK-synuclein cells: 2 fold
  percent phospho-synuclein, ELISA, cells transfected with GPRK6 cDNA: 18.9%

## Polo like kinase 2 (PLK2) (from UniProt Q9NYY3 1-685) (enzyme)
  fold increase of percent phospho-synuclein, cells transfected with PLK2 cDNA: 4 fold
  fold increase of phospho-synuclein over untransfected cells, ELISA, 293-synuclein cells: 4.3 fold
  percent phospho-synuclein, ELISA, cells transfected with PLK2 cDNA: 33.2%

## Protein kinase, cGMP-dependent, regulatory, Type I (PRKG1) (from UniProt Q13976 2-671) (enzyme)
  percentage of phospho-synuclein, ELISA, PEAK-Syn cells transfected with kinase cDNA: 8.9%
